Assay results as given in PMC10219671.

Target: SARS-CoV-2 HR2 protein (heptad repeat 2 of the S2 subunit of the spike protein) (SARS-CoV-2)
Assay: ELISA

Substance: SARS-CoV-2 HR1 protein (heptad repeat 1 of the S2 subunit of the spike protein) (domain or fragment)
- IC50: 47.8 nM
